Reference: patent US20180153953A1 (CITY OF HOPE, published 2018)

Biological target: T1, Mu-type opioid receptor (Homo sapiens) (Homo sapiens, UniProt P35372 1-400)
T1 construct: Endogenous receptor of PANC-1 cells, PANC-1 MCTS, normal pancreatic epithelial cells and patient tissue (fixed cells or cell lysates); also called MOR; mu opioid receptor
Experiment: co-immunoprecipitation: lysates of normal pancreatic epithelial cells or PANC-1 cells, IP anti-MOR, blot anti-CXCR4
Description: FIG. 3A-3D: There is no co-localization between MOR and CXCR4. FIG. 3A. […] Peak centers are shown. FIG. 3B. […] Peak centers are shown. FIG. 3C. Cross-correlation curves with s.e.m show no co-localization between MOR and CXCR4 in PANC-1 cells (diamonds, N=32 regions from 14 cells), PANC-1 MCTS (triangles, N=20 regions from 12 cells), and normal pancreatic epithelial cells (circles, N=21 regions from 13 cells). In all cases no long-range correlations were observed. FIG. 3D. Cell lysates from either normal pancreatic epithelial cells or PANC-1 cells were immunoprecipitated with anti-MOR antibody and immunoblotted with anti-CXCR4 antibody. CXCR4 was not detected in the MOR immunoprecipitate in either cell line.
Co-immunoprecipitation was performed using the co-immunoprecipitation kit (Pierce) per the manufacturer's protocol. Briefly, MOR antibody was immobilized using a coupling resin. PANC-1 or normal pancreatic epithelial cells were lysed using buffer containing 1% Nonidet P-40, 10% glycerol, 50 mM Tris-Cl, pH 7.4, 300 mM NaCl, 1.5 mM MgCl₂, 1 mM CaCl₂ and protease inhibitor tablets (Pierce) similarly as described before (Rozenfeld and Devi, 2007), pre-cleared and added to the antibody coupled resin and incubated with gentle shaking overnight at 4° C. After thorough washes, the protein sample co-immunoprecipitate was eluted and used for Western blotting with SSTR2 or CXCR4 antibodies. […]

T1 sequence (P35372 whole entry): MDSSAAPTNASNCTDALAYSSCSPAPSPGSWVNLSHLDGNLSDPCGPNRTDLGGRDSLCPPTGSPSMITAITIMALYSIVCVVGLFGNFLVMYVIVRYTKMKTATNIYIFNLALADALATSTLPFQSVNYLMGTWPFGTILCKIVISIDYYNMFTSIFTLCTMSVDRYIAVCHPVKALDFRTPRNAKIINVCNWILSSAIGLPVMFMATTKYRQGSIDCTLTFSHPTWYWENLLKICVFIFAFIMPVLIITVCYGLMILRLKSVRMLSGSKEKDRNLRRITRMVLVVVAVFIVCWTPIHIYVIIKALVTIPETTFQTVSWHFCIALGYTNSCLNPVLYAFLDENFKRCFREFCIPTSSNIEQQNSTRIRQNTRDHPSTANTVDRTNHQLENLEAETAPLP

B1: C-X-C motif receptor 4 (CXCR4) (receptor, human, UniProt P61073 1-352, looked up)
chain: MEGISIYTSDNYTEEMGSGDYDSMKEPCFREENANFNKIFLPTIYSIIFLTGIVGNGLVILVMGYQKKLRSMTDKYRLHLSVADLLFVITLPFWAVDAVANWYFGNFLCKAVHVIYTVNLYSSVLILAFISLDRYLAIVHATNSQRPRKLLAEKVVYVGVWIPALLLTIPDFIFANVSEADDRYICDRFYPNDLWVVVFQFQHIMVGLILPGIVILSCYCIIISKLSHSKGHQKRKALKTTVILILAFFACWLPYYIGISIDSFILLEIIKQGCEFENTVHKWISITEALAFFHCCLNPILYAFLGAKFKTSAQHALTSVSRGSSLKILSKGKRGGHSSVSTESESSSFHSS
notes: whole, on cells; Endogenous receptor in fixed cells or cell lysates
binding result: no binding
